From article PMC5384220, “Highly selective inhibition of histone demethylases by de novo macrocyclic peptides” (Nature Communications, 2017)

Key:
Test in all cases: cell-based or functional assay
[1] = target: KDM5C (human, UniProt P41229 1-1560)
[2] = target: T1, KDM4B (human, UniProt O94953 1-1096)
T1 sequence (looked up): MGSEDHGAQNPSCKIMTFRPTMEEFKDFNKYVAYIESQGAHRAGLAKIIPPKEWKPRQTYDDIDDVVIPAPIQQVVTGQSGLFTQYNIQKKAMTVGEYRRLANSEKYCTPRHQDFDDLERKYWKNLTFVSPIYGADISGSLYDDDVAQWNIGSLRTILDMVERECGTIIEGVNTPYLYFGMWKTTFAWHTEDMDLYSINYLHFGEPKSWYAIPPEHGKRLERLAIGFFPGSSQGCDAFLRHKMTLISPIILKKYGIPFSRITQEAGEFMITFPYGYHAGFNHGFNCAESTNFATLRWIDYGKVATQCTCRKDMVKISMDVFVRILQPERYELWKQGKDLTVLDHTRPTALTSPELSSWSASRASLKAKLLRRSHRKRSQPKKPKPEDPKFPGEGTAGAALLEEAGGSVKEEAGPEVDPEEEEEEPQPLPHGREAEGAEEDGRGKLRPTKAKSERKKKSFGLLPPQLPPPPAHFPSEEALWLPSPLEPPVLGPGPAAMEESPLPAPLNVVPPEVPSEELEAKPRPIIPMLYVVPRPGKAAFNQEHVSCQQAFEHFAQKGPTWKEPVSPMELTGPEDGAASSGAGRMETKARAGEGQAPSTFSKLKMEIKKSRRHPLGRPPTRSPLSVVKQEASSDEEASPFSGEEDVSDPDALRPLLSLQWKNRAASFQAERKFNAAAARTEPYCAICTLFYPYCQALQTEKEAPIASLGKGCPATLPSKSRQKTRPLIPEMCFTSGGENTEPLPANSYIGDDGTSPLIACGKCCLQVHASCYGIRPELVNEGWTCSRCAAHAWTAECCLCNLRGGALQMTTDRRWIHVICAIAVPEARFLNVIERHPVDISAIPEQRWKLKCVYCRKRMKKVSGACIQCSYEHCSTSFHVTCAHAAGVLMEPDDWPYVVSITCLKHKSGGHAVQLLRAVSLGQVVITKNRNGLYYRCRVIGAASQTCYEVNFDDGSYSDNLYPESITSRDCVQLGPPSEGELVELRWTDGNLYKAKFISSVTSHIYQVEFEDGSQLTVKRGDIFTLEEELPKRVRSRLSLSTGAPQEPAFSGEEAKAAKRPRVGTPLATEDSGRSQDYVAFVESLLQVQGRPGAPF

[3] = target: T2, KDM4C (human, UniProt Q9H3R0 1-1056)
T2 sequence (looked up): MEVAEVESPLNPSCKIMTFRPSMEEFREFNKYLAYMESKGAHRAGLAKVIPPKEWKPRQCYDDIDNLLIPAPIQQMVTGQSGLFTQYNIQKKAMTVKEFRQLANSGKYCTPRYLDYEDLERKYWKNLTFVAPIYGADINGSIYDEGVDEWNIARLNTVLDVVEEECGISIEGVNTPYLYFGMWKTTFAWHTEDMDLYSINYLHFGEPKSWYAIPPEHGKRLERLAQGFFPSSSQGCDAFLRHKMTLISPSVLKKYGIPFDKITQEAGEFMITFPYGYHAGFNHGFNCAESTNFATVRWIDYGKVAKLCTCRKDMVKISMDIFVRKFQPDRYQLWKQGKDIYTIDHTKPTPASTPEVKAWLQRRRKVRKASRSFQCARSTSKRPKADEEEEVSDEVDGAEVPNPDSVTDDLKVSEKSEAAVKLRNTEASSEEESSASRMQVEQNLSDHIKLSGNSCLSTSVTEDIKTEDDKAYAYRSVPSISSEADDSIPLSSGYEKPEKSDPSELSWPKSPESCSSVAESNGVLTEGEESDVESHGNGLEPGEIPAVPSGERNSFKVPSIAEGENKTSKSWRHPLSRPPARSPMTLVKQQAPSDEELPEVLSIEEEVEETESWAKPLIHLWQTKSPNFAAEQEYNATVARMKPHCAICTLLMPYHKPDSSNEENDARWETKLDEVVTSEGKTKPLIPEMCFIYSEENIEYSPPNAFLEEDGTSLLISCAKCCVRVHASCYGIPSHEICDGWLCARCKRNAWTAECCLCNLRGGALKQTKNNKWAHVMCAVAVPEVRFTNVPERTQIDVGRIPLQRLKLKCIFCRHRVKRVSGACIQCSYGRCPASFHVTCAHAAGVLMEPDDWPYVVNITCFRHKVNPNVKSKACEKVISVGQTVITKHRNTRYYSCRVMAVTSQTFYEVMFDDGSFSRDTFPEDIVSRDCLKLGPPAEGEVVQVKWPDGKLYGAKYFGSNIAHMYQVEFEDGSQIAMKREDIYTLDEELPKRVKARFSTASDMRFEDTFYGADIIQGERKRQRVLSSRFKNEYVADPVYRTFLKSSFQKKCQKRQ

[4] = target: T3, N-terminally Hexa-His-tagged KDM4A (residues 1–359) (human, UniProt O75164 1-359)
T3 sequence (looked up): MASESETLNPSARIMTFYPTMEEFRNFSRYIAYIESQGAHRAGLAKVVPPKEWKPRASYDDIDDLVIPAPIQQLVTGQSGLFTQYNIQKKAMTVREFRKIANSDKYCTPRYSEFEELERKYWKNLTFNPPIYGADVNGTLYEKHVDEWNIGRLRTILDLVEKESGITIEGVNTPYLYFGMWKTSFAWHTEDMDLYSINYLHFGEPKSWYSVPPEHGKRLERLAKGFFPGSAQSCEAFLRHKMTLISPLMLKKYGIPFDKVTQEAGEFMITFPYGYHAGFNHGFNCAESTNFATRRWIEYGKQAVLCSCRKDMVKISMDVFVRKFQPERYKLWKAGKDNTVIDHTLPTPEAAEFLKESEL

Chain of KDM5C (P41229 whole entry): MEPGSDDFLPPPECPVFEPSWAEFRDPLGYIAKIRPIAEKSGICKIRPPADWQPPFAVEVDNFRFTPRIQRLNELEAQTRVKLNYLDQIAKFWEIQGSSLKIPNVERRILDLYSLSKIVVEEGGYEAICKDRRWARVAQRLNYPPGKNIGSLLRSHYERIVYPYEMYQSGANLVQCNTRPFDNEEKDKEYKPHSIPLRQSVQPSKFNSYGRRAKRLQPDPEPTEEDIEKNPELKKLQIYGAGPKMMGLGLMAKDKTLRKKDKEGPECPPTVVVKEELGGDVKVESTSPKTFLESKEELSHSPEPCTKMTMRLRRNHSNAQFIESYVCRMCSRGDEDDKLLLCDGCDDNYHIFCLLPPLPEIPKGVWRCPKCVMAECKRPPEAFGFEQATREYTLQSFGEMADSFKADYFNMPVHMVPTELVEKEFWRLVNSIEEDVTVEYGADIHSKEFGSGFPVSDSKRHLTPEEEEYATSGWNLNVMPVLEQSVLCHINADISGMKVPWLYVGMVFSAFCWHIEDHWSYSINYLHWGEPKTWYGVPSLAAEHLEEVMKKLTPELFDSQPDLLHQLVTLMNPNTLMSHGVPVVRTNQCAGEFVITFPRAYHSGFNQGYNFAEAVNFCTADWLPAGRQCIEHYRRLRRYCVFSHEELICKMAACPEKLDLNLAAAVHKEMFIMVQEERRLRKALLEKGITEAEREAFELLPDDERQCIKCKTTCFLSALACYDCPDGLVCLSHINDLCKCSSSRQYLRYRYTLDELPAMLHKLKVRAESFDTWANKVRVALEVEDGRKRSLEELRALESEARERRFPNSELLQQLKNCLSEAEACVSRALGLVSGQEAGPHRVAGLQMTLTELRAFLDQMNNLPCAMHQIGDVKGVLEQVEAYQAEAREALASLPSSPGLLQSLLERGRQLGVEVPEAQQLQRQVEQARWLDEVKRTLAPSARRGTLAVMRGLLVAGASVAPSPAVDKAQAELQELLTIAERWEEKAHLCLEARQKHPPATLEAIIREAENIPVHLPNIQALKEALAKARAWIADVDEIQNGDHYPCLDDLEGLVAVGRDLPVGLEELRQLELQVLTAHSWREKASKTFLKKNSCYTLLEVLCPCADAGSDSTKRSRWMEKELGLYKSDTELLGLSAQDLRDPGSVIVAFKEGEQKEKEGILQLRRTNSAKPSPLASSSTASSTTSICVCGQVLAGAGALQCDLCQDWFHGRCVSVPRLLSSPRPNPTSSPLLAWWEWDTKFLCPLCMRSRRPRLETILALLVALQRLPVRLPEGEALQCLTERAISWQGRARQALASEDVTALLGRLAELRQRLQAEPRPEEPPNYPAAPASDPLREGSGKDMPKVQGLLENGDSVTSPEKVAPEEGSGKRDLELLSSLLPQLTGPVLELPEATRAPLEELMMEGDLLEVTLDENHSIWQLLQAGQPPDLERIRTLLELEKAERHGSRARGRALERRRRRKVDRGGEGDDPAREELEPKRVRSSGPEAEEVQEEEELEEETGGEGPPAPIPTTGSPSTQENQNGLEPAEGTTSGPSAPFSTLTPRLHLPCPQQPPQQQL

IC50 of inhibition of demethylase activity (AlphaScreen activity assay) [1]: > 10000 nM
IC50 of inhibition of demethylase activity (AlphaScreen activity assay) [2]: 6 nM
IC50 of inhibition of demethylase activity (AlphaScreen activity assay) [3]: 17 nM
IC50 of inhibition of demethylase activity (AlphaScreen activity assay) [4]: 20 nM
B1: CP4 (peptide)
chain: YLKSRRSGLTWIPC
modifications: not fully specified; N-terminal L-Tyr (^LTyr library, N-chloroacetyl-L-Tyr) cyclised by a thioether to a downstream cysteine
